Source: PMC2756588

Assays:
Experiment in all cases: SPOT array
[1] = target: T1, Sla1-2, P32790; details: median of control spots 712
T1 sequence (P32790 60-140, looked up): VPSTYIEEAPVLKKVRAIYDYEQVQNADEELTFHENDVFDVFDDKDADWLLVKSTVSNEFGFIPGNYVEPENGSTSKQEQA

[2] = target: T2, Pin3, Q06449; details: median of control spots 2171
T2 sequence (Q06449 53-122, looked up): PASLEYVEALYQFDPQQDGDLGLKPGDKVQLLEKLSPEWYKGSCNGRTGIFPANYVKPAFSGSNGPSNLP

[3] = target: T3, Lsb1, P53281; details: median of control spots 388
T3 sequence (P53281 45-122, looked up): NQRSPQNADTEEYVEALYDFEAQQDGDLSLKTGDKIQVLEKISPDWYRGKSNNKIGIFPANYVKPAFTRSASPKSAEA

[4] = target: T4, Cyk3, Q07533; details: median of control spots 1451
T4 sequence (Q07533 1-83, looked up): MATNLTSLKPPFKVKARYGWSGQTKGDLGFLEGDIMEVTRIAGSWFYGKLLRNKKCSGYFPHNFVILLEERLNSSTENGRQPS

[5] = target: T5, Abp1, P15891; details: median of control spots 935
T5 sequence (P15891 535-592, looked up): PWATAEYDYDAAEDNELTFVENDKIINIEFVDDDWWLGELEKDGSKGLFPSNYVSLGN

[6] = target: T6, Bzz1-1, P38822; details: median of control spots 4446
T6 sequence (P38822 478-572, looked up): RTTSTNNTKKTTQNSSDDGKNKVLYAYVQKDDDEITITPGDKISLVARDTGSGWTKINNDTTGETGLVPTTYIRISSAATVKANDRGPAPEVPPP

[7] = target: T7, Hse1, P38753; details: median of control spots 1727
T7 sequence (P38753 208-285, looked up): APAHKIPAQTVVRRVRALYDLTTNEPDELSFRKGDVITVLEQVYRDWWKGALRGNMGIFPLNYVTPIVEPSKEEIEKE

[8] = target: T8, Myo5, Q04439; details: median of control spots 471
T8 sequence (Q04439 1072-1160, looked up): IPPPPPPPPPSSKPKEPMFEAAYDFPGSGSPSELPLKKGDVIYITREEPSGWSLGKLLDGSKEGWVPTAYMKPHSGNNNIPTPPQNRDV

[9] = target: Bem1-2, P29366; details: median of control spots 4347
Bem1-2, P29366, sequence (P29366 139-227): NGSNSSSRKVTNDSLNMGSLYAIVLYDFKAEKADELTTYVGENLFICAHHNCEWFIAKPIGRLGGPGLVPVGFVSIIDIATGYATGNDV

[10] = target: Myo3, P36006; details: median of control spots 468
[11] = target: Bem1-1, P29366; details: median of control spots 4282
Bem1-1, P29366, sequence (P29366 55-141): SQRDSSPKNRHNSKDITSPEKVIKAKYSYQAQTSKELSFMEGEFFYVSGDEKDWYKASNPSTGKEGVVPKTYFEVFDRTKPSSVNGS

[12] = target: T9, Pex13, P80667; details: median of control spots 1341
T9 sequence (P80667 295-386, looked up): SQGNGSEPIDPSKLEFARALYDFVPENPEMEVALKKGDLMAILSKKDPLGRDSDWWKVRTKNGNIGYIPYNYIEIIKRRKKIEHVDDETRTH

[13] = target: T10, Hof1, Q05080; details: median of control spots 4086
T10 sequence (Q05080 590-669, looked up): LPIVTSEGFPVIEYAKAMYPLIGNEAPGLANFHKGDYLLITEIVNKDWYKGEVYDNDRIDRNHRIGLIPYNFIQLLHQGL

[14] = target: T11, Bbc1, P47068; details: median of control spots 796
T11 sequence (P47068 1-78, looked up): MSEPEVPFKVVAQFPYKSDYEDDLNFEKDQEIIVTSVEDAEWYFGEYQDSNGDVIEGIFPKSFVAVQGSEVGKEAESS

[15] = target: Sho1, P40073; details: median of control spots 1148
Sho1, P40073, sequence (P40073 287-367): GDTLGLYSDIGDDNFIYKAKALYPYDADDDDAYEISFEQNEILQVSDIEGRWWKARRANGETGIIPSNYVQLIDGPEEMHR

[16] = target: T12, Bzz1-2, P38822; details: median of control spots 4538
T12 sequence (P38822 568-633, looked up): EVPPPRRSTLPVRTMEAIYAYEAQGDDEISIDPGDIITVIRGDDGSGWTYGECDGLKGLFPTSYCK

[17] = target: T13, Cdc25, P04821; details: median of control spots 969
T13 sequence (P04821 50-136, looked up): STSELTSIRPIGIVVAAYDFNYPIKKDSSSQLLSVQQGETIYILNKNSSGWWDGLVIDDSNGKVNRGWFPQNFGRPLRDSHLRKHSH

[18] = target: T14, Nbp2, Q12163; details: median of control spots 357
T14 sequence (Q12163 103-180, looked up): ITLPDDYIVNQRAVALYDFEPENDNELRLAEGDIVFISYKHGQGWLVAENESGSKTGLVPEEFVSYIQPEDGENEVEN

[19] = target: T15, Sla1-3, P32790; details: median of control spots 5475
T15 sequence (P32790 344-424, looked up): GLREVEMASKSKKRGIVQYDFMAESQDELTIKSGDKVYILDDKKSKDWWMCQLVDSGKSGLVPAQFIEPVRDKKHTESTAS

[20] = target: Rvs167, P39743; details: median of control spots 2707
Rvs167, P39743, sequence (P39743 419-482): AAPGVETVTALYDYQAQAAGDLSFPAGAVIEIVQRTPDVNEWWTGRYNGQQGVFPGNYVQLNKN

[21] = target: T16, Boi1, P38041; details: median of control spots 1162
T16 sequence (P38041 1-86, looked up): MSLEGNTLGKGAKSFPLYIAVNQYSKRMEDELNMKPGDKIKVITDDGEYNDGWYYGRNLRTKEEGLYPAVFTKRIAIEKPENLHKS

[22] = target: T17, Lsb4, P32793; details: median of control spots 397
T17 sequence (P32793 402-468, looked up): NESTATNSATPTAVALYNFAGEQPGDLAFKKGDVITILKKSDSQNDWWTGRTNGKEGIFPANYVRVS

[23] = target: T18, Bud14, P27637; details: median of control spots 956
T18 sequence (P27637 247-328, looked up): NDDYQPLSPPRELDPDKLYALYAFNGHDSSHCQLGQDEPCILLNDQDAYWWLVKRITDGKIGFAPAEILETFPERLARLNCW

[24] = target: T19, Fus1, P11710; details: median of control spots 1200
T19 sequence (P11710 432-512, looked up): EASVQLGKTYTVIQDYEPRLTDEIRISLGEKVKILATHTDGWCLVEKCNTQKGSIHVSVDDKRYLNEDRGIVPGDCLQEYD

[25] = target: T20, Boi2, P39969; details: median of control spots 1161
T20 sequence (P39969 32-116, looked up): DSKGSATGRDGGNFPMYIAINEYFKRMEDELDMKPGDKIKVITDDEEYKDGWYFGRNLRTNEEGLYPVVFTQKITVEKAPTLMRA

[26] = target: T21, Lsb3, P43603; details: median of control spots 406
T21 sequence (P43603 385-451, looked up): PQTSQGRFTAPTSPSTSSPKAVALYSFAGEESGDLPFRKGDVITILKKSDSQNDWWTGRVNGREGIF

[27] = target: GST; details: median of control spots 978

RTRRRPPPPPIPSTQ
SPOT intensity [1]: 3
SPOT intensity [2]: 10
SPOT intensity [3]: 800
SPOT intensity [4]: 3
SPOT intensity [5]: 212
SPOT intensity [6]: 1470
SPOT intensity [7]: 63
SPOT intensity [8]: 243
SPOT intensity [9]: 79
SPOT intensity [10]: 487
SPOT intensity [11]: 0
SPOT intensity [12]: 21
SPOT intensity [13]: 8
SPOT intensity [14]: 434
SPOT intensity [15]: 83
SPOT intensity [16]: 2960
SPOT intensity [17]: 3
SPOT intensity [18]: 107
SPOT intensity [19]: 1980
SPOT intensity [20]: 99
SPOT intensity [21]: 1
SPOT intensity [22]: 69
SPOT intensity [23]: 16
SPOT intensity [24]: 13
SPOT intensity [25]: 0
SPOT intensity [26]: 56
SPOT intensity [27]: 1

GDHPKGPPPPPPPPD
SPOT intensity [1]: 0
SPOT intensity [2]: 0
SPOT intensity [3]: 0
SPOT intensity [4]: 0
SPOT intensity [5]: 0
SPOT intensity [6]: 331
SPOT intensity [7]: 0
SPOT intensity [8]: 262
SPOT intensity [9]: 0
SPOT intensity [10]: 456
SPOT intensity [11]: 0
SPOT intensity [12]: 0
SPOT intensity [13]: 0
SPOT intensity [14]: 0
SPOT intensity [15]: 0
SPOT intensity [16]: 0
SPOT intensity [17]: 0
SPOT intensity [18]: 1
SPOT intensity [19]: 0
SPOT intensity [20]: 0
SPOT intensity [21]: 0
SPOT intensity [22]: 0
SPOT intensity [23]: 1
SPOT intensity [24]: 0
SPOT intensity [25]: 0
SPOT intensity [26]: 0
SPOT intensity [27]: 0

MSPLGAPPPPPHKDH
SPOT intensity [1]: 0
SPOT intensity [2]: 0
SPOT intensity [3]: 0
SPOT intensity [4]: 0
SPOT intensity [5]: 0
SPOT intensity [6]: 0
SPOT intensity [7]: 0
SPOT intensity [8]: 108
SPOT intensity [9]: 0
SPOT intensity [10]: 245
SPOT intensity [11]: 0
SPOT intensity [12]: 0
SPOT intensity [13]: 0
SPOT intensity [14]: 0
SPOT intensity [15]: 0
SPOT intensity [16]: 1
SPOT intensity [17]: 0
SPOT intensity [18]: 0
SPOT intensity [19]: 0
SPOT intensity [20]: 0
SPOT intensity [21]: 0
SPOT intensity [22]: 0
SPOT intensity [23]: 0
SPOT intensity [24]: 0
SPOT intensity [25]: 0
SPOT intensity [26]: 0
SPOT intensity [27]: 1

SPLGAPPPPPHKDHL
SPOT intensity [1]: 0
SPOT intensity [2]: 0
SPOT intensity [3]: 0
SPOT intensity [4]: 0
SPOT intensity [5]: 0
SPOT intensity [6]: 0
SPOT intensity [7]: 0
SPOT intensity [8]: 81
SPOT intensity [9]: 0
SPOT intensity [10]: 327
SPOT intensity [11]: 0
SPOT intensity [12]: 0
SPOT intensity [13]: 0
SPOT intensity [14]: 0
SPOT intensity [15]: 1
SPOT intensity [16]: 0
SPOT intensity [17]: 0
SPOT intensity [18]: 0
SPOT intensity [19]: 0
SPOT intensity [20]: 2
SPOT intensity [21]: 1
SPOT intensity [22]: 0
SPOT intensity [23]: 0
SPOT intensity [24]: 0
SPOT intensity [25]: 0
SPOT intensity [26]: 0
SPOT intensity [27]: 1
